We go through 167 variants from the RNAGym collection of RNA variant scans (doi:10.7554/elife.90254).

B1: OR4K15 (parent)
chain: GUUAACGGUCAUAGGCCAUGGAAACUAGGAGCACCAUUUCGCUGCCAGUGAAGAAAUGAACAAAGAAAAUCUGGGCCAGGCAGGCAUCAAAAGAAAUAGUCUUGCGCUCAACCAGAAAGUCUGUAAUCAUUUUAAGGGUA
B2: LINE1-full (parent)
chain: UACGUAGGUGGUUUUCCCCUGAUAGUGCUAAGGGGGCCUGGAAGUUUGGACUGGGCAGAGCUCAACACAGCGUGGCAAAGUGGCUGUGGCUAGACUGCCUCUCUGGAUUCCUCGUCACUCAGCAGGGCAUCUCUGAGAGAAAUGCC

The variants in one series derive from B1. Put plainly: self-cleavage, relative activity (ratio to wild type); higher = more cleavage; in vitro, sequencing; the parent is a self-cleaving ribozyme.
Consider G1U U103C, for which the self-cleavage is 1.59.

Regarding U2C A5G, the self-cleavage came out at 0.24.

Take U2A A51U: the self-cleavage was 0.86.

U2A G104A: the self-cleavage stood at 0.16.

Consider G1U A24G, for which the self-cleavage came out at 1.6.

Turning to G1A U108C, the self-cleavage came to 0.05.

Consider U2A A36U, for which the self-cleavage stood at 1.18.

For U2A U87A, the self-cleavage was found to be 1.32.

G1A A4G: the self-cleavage stood at 0.54.

On to U2A U108C, for which the self-cleavage worked out at 0.04.

Regarding U2A C77U, the self-cleavage came out at 1.39.

Consider U2A A135U, for which the self-cleavage was 0.96.

As for G1A G137A, the self-cleavage was 0.95.

For the variant U2C A51G, the self-cleavage is 0.84.

U2C A51U: the self-cleavage was 0.82.

For U2A A114G, the self-cleavage came out at 0.67.

As to U2A, the self-cleavage was 0.8.

Consider U2C, for which the self-cleavage is 0.88.

For the variant U2C A23G, the self-cleavage is 1.01.

U2C A22G: the self-cleavage worked out at 1.11.

Consider U2C A22U, for which the self-cleavage is 1.51.

G1U U87C: the self-cleavage is 0.27.

G1A A90G: the self-cleavage was 0.26.

As for U2A U127C, the self-cleavage was 1.08.

As to U2A A89U, the self-cleavage worked out at 1.2.

Regarding U2A A52G, the self-cleavage amounted to 0.8.

As for U2A U100C, the self-cleavage was determined as 0.89.

As to G1A A134G, the self-cleavage was found to be 1.75.

As for G1A U122C, the self-cleavage was 0.48.

With G1A A18G, the self-cleavage stood at 1.58.

As to G1A A18C, the self-cleavage was found to be 1.98.

For U2A C61U, the self-cleavage turned out to be 0.71.

On to G1U A5G, for which the self-cleavage came out at 0.45.

Turning to U2C A55G, the self-cleavage turned out to be 1.15.

Take U2C A55U: the self-cleavage is 1.46.

For G1A A92G, the self-cleavage was found to be 1.66.

Turning to U2A U43G, the self-cleavage turned out to be 1.11.

As for U2C A47U, the self-cleavage amounted to 0.86.

For U2C A47G, the self-cleavage is 1.28.

On to U2A U102A, for which the self-cleavage was 1.51.

G1U A36G: the self-cleavage turned out to be 1.26.

On to G1A C40U, for which the self-cleavage turned out to be 1.78.

For U2A A78G, the self-cleavage is 0.46.

Consider U2A A78C, for which the self-cleavage worked out at 0.66.

For the variant U2C A30G, the self-cleavage worked out at 1.22.

For the variant U2A A86G, the self-cleavage was determined as 1.46.

In the case of G1A A95G, the self-cleavage was found to be 2.4.

Regarding U2A A23C, the self-cleavage stood at 0.29.

Turning to G1A U72C, the self-cleavage came out at 0.39.

U2A G14C: the self-cleavage is 0.7.

As to U2C A54U, the self-cleavage came out at 1.61.

In the case of U2C A54G, the self-cleavage amounted to 0.68.

In the case of G1U C105A, the self-cleavage was 0.03.

G1A A62C: the self-cleavage was found to be 2.59.

As for U2A A110G, the self-cleavage worked out at 0.16.

As for U2C A24G, the self-cleavage stood at 1.09.

G1A U132C: the self-cleavage amounted to 0.94.

As to U2C A33C, the self-cleavage came to 0.88.

For G1U A114G, the self-cleavage stood at 0.33.

Take G1U U39A: the self-cleavage was 1.74.

Turning to U2A G106A, the self-cleavage is 0.06.

With U2C A52U, the self-cleavage was 0.38.

Consider U2C A13G, for which the self-cleavage was 0.99.

As to U2A A118G, the self-cleavage stood at 0.95.

With G1A U9G, the self-cleavage turned out to be 1.23.

Turning to U2C A60U, the self-cleavage was found to be 1.67.

Consider U2A U49C, for which the self-cleavage came to 1.68.

As for G1U A33G, the self-cleavage turned out to be 0.79.

Take G1U A33U: the self-cleavage is 1.75.

In the case of G1A A33G, the self-cleavage was 0.78.

As to U2C A64U, the self-cleavage was found to be 1.3.

As to U2A A5G, the self-cleavage was 1.24.

For the variant G1A G138A, the self-cleavage worked out at 2.03.

With U2A A18G, the self-cleavage amounted to 0.91.

As to U2A U3A, the self-cleavage came out at 1.16.

For the variant U2A A22U, the self-cleavage is 0.88.

Take U2A A24C: the self-cleavage was 0.96.

Consider U2A A24G, for which the self-cleavage was determined as 0.54.

Regarding G1A A82G, the self-cleavage was 1.18.

In the case of U2A A125U, the self-cleavage was 2.08.

For the variant U2A U26C, the self-cleavage was determined as 0.99.

Consider U2C A4G, for which the self-cleavage is 0.87.

As to U2A U132C, the self-cleavage is 1.21.

Consider U2A A129G, for which the self-cleavage is 0.66.

Consider U2A A96G, for which the self-cleavage amounted to 1.05.

Take G1A A111G: the self-cleavage amounted to 0.21.

For the variant U2A C45A, the self-cleavage turned out to be 1.82.

Consider G1A U49C, for which the self-cleavage amounted to 1.35.

The variants in another series derive from B2. The series is described as above.
With A140U G144A, the self-cleavage is 1.39.

As to G137C A138G, the self-cleavage amounted to 1.26.

G125U: the self-cleavage came out at 1.23.

Turning to A140G A141U, the self-cleavage amounted to 0.82.

As for A129G A136G, the self-cleavage amounted to 1.7.

As to U134G G137U, the self-cleavage is 0.94.

Take A136G A141G: the self-cleavage worked out at 1.03.

Turning to A129U A140G, the self-cleavage stood at 1.53.

On to U132C A138G, for which the self-cleavage worked out at 1.6.

For U132C A138U, the self-cleavage turned out to be 1.48.

As to A142G G144A, the self-cleavage turned out to be 1.44.

With A129U C131U, the self-cleavage came to 1.78.

Regarding A129G U132C, the self-cleavage worked out at 1.58.

Consider A138U, for which the self-cleavage amounted to 1.1.

On to A138C, for which the self-cleavage came out at 0.76.

As for A138G, the self-cleavage was 1.21.

G127U A141G: the self-cleavage was 1.45.

Consider A140G U143C, for which the self-cleavage amounted to 0.26.

Take A136U A141G: the self-cleavage stood at 1.3.

Turning to G127C C145U, the self-cleavage was 1.01.

As for C128U A140U, the self-cleavage was 1.36.

Consider C128U A140G, for which the self-cleavage worked out at 0.89.

Regarding U134C G135A, the self-cleavage amounted to 2.1.

A141C U143C: the self-cleavage worked out at 1.67.

With G137C, the self-cleavage is 1.3.

For the variant G137A, the self-cleavage came out at 1.19.

With G137U, the self-cleavage worked out at 1.31.

As for C131A U134C, the self-cleavage was 1.53.

Take A138U A141G: the self-cleavage was 1.17.

G127U U130C: the self-cleavage was 1.77.

In the case of U132C A142U, the self-cleavage was found to be 1.2.

For the variant U132C A142C, the self-cleavage was found to be 1.51.

Consider G125U U134G, for which the self-cleavage was found to be 1.26.

For G125U U134A, the self-cleavage is 1.87.

U132A U143C: the self-cleavage stood at 1.82.

For U132A U143A, the self-cleavage amounted to 2.

With C133A A142G, the self-cleavage turned out to be 1.4.

For U134C A140G, the self-cleavage was found to be 1.58.

G126A A140U: the self-cleavage came to 1.67.

On to C131U A141G, for which the self-cleavage turned out to be 1.51.

As for U134G A141G, the self-cleavage came to 1.44.

On to A142C U143A, for which the self-cleavage is 1.41.

For C133A U143C, the self-cleavage came out at 1.67.

With C128U U130C, the self-cleavage is 1.35.

On to A138G C145A, for which the self-cleavage came to 2.76.

As for U132C C146U, the self-cleavage is 1.51.

Turning to A140G C146U, the self-cleavage was determined as 1.63.

For A138U A140U, the self-cleavage worked out at 0.84.

For the variant C146U, the self-cleavage is 1.29.

Take C146A: the self-cleavage turned out to be 1.45.

In the case of G137A A140G, the self-cleavage came to 1.4.

As for G127C A138G, the self-cleavage was determined as 1.31.

With U134A A140C, the self-cleavage was determined as 0.55.

Regarding U134A A140U, the self-cleavage amounted to 0.85.

As for U134A A140G, the self-cleavage is 0.53.

Take U130C C133A: the self-cleavage was determined as 1.61.

As for A136G U143A, the self-cleavage was 1.34.

Turning to G126C A140G, the self-cleavage amounted to 2.25.

In the case of U134A A141G, the self-cleavage stood at 1.12.

Consider G126U U134C, for which the self-cleavage came out at 1.49.

On to G126U U134A, for which the self-cleavage is 0.84.

In the case of U134C A138G, the self-cleavage was determined as 1.4.

Turning to G144U, the self-cleavage was 1.58.

For G144A, the self-cleavage was 1.23.

In the case of G144C, the self-cleavage turned out to be 1.34.

For C145U C146A, the self-cleavage was found to be 1.59.

Turning to G135A C145U, the self-cleavage was 1.46.

On to A138C A140G, for which the self-cleavage was 0.07.

For the variant A138G C146A, the self-cleavage is 1.17.

As to C128A A141G, the self-cleavage was determined as 1.01.

For A129C A138U, the self-cleavage was 0.57.

Turning to G126A U134C, the self-cleavage came to 1.58.

With A141C A142G, the self-cleavage is 1.26.

Regarding U134G A140G, the self-cleavage was 1.03.

In the case of G127U A129G, the self-cleavage stood at 0.75.

For the variant U130C A141C, the self-cleavage was found to be 2.91.

For the variant U130C, the self-cleavage was 1.52.

For U130G, the self-cleavage was determined as 1.32.

As to U130A, the self-cleavage is 1.42.
